This data set deals with the molecule itself. The data set is described as follows: gel filtration (Superose 200); dynamic light scattering with MgCl2 also gave a monodisperse, dimeric sample; homodimer self-association.

B1: recombinant S. aureus thymidylate kinase (with polyhistidine [his6] sequence tag) (enzyme)
chain: MGSAFITFEGPEGSGKTTVINEVYHRLVKDYDVIMTREPGGVPTGEEIRKIVLEGNDMDIRTEAMLFAASRREHLVLKVIPALKEGKVVLCDRYIDSSLAYQGYARGIGVEEVRALNEFAINGLYPDLTIYLNVSAEVGRERIIKNSRDQNRLDQEDLKFHEKVIEGYQEIIHNESQRFKSVNADQPLENVVEDTYQTIIKYLEKIRSHHHHHH
notes: Expressed in E. coli with a His6 tag; The crystals used for the structure were of the selenomethionine analogue (methionines replaced by selenomethionine); Gel filtration and light scattering appear to have used the native protein; also called S. aureus TMK; T. kinase
B1: the binding result is listed as “binds”.

These data come from patent publication US20040171050A1 (PHARMACIA AND UPJOHN, published 2004).
